From patent US20040229797A1 come the findings set out here.

In this experiment the target is HA-tagged Filamin 1 (HA-Filamin 1). Put plainly: cell-based or functional assay.

Take “S-FILIP (short form Filamin-interacting protein) (from UniProt Q8K4T4 248-965)”: the relative amount of recombinant Filamin 1 and GFP worked out at 1.8.
